Results taken from article doi:10.1101/2025.08.11.669663 (bioRxiv, 2025).

B1: catalase (CAT) (natural protein, human (endogenous in HeLa), UniProt P04040 1-527, looked up)
chain: MADSRDPASDQMQHWKEQRAAQKADVLTTGAGNPVGDKLNVITVGPRGPLLVQDVVFTDEMAHFDRERIPERVVHAKGAGAFGYFEVTHDITKYSKAKVFEHIGKKTPIAVRFSTVAGESGSADTVRDPRGFAVKFYTEDGNWDLVGNNTPIFFIRDPILFPSFIHSQKRNPQTHLKDPDMVWDFWSLRPESLHQVSFLFSDRGIPDGHRHMNGYGSHTFKLVNANGEAVYCKFHYKTDQGIKNLSVEDAARLSQEDPDYGIRDLFNAIATGKYPSWTFYIQVMTFNQAETFPFNPFDLTKVWPHKDYPLIPVGKLVLNRNPVNYFAEVEQIAFDPSNMPPGIEASPDKMLQGRLFAYPDTHRHRLGPNYLHIPVNCPYRARVANYQRDGPMCMQDNQGGAPNYYPNSFGAPEQQPSALEHSIQYSGEVRRFNTANDDNVTQVRAFYVNVLNEEQRKRLCENIAGHLKDAQIFIQKKAVKNFTEVHPDYGSHIQALLDKYNAEKPKNAIHTFVQSGSHLAAREKANL
B2: peroxiredoxin 2 (PRDX2) (natural protein, human (endogenous in HeLa), UniProt P32119 1-198, looked up)
chain: MASGNARIGKPAPDFKATAVVDGAFKEVKLSDYKGKYVVLFFYPLDFTFVCPTEIIAFSNRAEDFRKLGCEVLGVSVDSQFTHLAWINTPRKEGGLGPLNIPLLADVTRRLSEDYGVLKTDEGIAYRGLFIIDGKGVLRQITVNDLPVGRSVDEALRLVQAFQYTDEHGEVCPAGWKPGSDTIKPNVDDSKEYFSKHN
B3: PRIM2 (a DNA primase subunit) (natural protein, human (endogenous in HeLa), UniProt P49643 1-509, looked up)
chain: MEFSGRKWRKLRLAGDQRNASYPHCLQFYLQPPSENISLIEFENLAIDRVKLLKSVENLGVSYVKGTEQYQSKLESELRKLKFSYRENLEDEYEPRRRDHISHFILRLAYCQSEELRRWFIQQEMDLLRFRFSILPKDKIQDFLKDSQLQFEAISDEEKTLREQEIVASSPSLSGLKLGFESIYKIPFADALDLFRGRKVYLEDGFAYVPLKDIVAIILNEFRAKLSKALALTARSLPAVQSDERLQPLLNHLSHSYTGQDYSTQGNVGKISLDQIDLLSTKSFPPCMRQLHKALRENHHLRHGGRMQYGLFLKGIGLTLEQALQFWKQEFIKGKMDPDKFDKGYSYNIRHSFGKEGKRTDYTPFSCLKIILSNPPSQGDYHGCPFRHSDPELLKQKLQSYKISPGGISQILDLVKGTHYQVACQKYFEMIHNVDDCGFSLNHPNQFFCESQRILNGGKDIKKEPIQPETPQPKPSVQKTKDASSALASLNSSLEMDMEGLEDYFSEDS
B4: glyceraldehyde-3-phosphate dehydrogenase (GAPDH) (natural protein)
chain: not shown
B5: POLD1 (a DNA polymerase subunit) (natural protein, human (endogenous in HeLa), UniProt P28340 1-1107, looked up)
chain: MDGKRRPGPGPGVPPKRARGGLWDDDDAPRPSQFEEDLALMEEMEAEHRLQEQEEEELQSVLEGVADGQVPPSAIDPRWLRPTPPALDPQTEPLIFQQLEIDHYVGPAQPVPGGPPPSRGSVPVLRAFGVTDEGFSVCCHIHGFAPYFYTPAPPGFGPEHMGDLQRELNLAISRDSRGGRELTGPAVLAVELCSRESMFGYHGHGPSPFLRITVALPRLVAPARRLLEQGIRVAGLGTPSFAPYEANVDFEIRFMVDTDIVGCNWLELPAGKYALRLKEKATQCQLEADVLWSDVVSHPPEGPWQRIAPLRVLSFDIECAGRKGIFPEPERDPVIQICSLGLRWGEPEPFLRLALTLRPCAPILGAKVQSYEKEEDLLQAWSTFIRIMDPDVITGYNIQNFDLPYLISRAQTLKVQTFPFLGRVAGLCSNIRDSSFQSKQTGRRDTKVVSMVGRVQMDMLQVLLREYKLRSYTLNAVSFHFLGEQKEDVQHSIITDLQNGNDQTRRRLAVYCLKDAYLPLRLLERLMVLVNAVEMARVTGVPLSYLLSRGQQVKVVSQLLRQAMHEGLLMPVVKSEGGEDYTGATVIEPLKGYYDVPIATLDFSSLYPSIMMAHNLCYTTLLRPGTAQKLGLTEDQFIRTPTGDEFVKTSVRKGLLPQILENLLSARKRAKAELAKETDPLRRQVLDGRQLALKVSANSVYGFTGAQVGKLPCLEISQSVTGFGRQMIEKTKQLVESKYTVENGYSTSAKVVYGDTDSVMCRFGVSSVAEAMALGREAADWVSGHFPSPIRLEFEKVYFPYLLISKKRYAGLLFSSRPDAHDRMDCKGLEAVRRDNCPLVANLVTASLRRLLIDRDPEGAVAHAQDVISDLLCNRIDISQLVITKELTRAASDYAGKQAHVELAERMRKRDPGSAPSLGDRVPYVIISAAKGVAAYMKSEDPLFVLEHSLPIDTQYYLEQQLAKPLLRIFEPILGEGRAEAVLLRGDHTRCKTVLTGKVGGLLAFAKRRNCCIGCRTVLSHQGAVCEFCQPRESELYQKEVSHLNALEERFSRLWTQCQRCQGSLHEDVICTSRDCPIFYMRKKVRKDLEDQEQLLRRFGPPGPEAW

Experiments:
[1] = biological target: Cu/Zn superoxide dismutase (SOD1) (human (endogenous in HeLa), UniProt P00441 1-154); test: co-IP
[2] = biological target: B1; test: co-IP

Chain of Cu/Zn superoxide dismutase (SOD1) (P00441 whole entry): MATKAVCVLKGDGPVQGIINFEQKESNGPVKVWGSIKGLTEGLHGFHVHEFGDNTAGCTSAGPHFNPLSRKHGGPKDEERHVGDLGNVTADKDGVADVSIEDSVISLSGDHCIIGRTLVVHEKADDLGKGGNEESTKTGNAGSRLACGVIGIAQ

B1
co-precipitated amount after H2O2 treatment, percent of control [1]: 170%

B2
co-precipitated amount after H2O2 treatment, percent of control [2]: 139%

B3
co-precipitated amount after H2O2 treatment, percent of that without H2O2 [2]: 175% | co-precipitated amount after H2O2 treatment, percent of that without H2O2 [1]: 130%

B4
co-precipitated amount after H2O2 treatment, percent of control [1]: 180%

B5
co-precipitated amount after H2O2 treatment, percent of that without H2O2 [2]: 190%
